Assay results as given in the supplement of paper PMC7877785.
± gives the uncertainty stated by the source.

Experiment: self-splicing fitness, log relative to wild type (ln ratio); higher = more splicing; Tetrahymena group I intron in knt gene, E. coli kanamycin selection, DiMSum; sequences stand for … in CUCUCU…GGAGGGAAAAGUUAUCAGGCAUGCACCUGGUAGCUAGUCUUUAAACCAAUAGAUUGCAUCGGUUUAAAAGGCAAGACCGUCAAAUUGCGGGAAAGGGGUCAACAGCCGUUCAGUACCAAGUCUCAGGGGAAACUUUGAGAUGGCCUUGCAAAGGGUAUGGUAAUAAGCUGACGGACAUGGUCCUAACCACGCAGCCAAGUCCUAAGUCAACAGAUCUUCUGUUGAUAUGGAUGCAGUUCACAGACUAAAUGUCGGUCGGGGAAGAUGUAUUCUUCUCAUAAGAUAUAGUCGGACCUCUCCUUAAUGGGAGCUAGCGGAUGAAGUGAUGCAACACUGGAGCCGCUGGGAACUAAUUUGUAUGCGAAAGUAUAUUGAUUAGUUUUGGAGUACUCGUGGUCG
Outline: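 Pooled colonies went to amplicon sequencing on an Illumina HiSeq 2500 after six replicate transformations. The plates were LB agar with 100 μg/mL carbenicillin, 50 μM IPTG and 0.2% rhamnose, with or without 25 μg/mL kanamycin, incubated overnight at 37°C or 30°C. The E. coli BL21(DE3) library had all eight P1ex-region intron nucleotides randomised, the intron placed in the knt kanamycin-resistance gene on pET-22b(+). DiMSum fitness is the error-weighted combination of replicate fold changes, kanamycin against none, normalised to wild type.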

Row | Sequence | self-splicing fitness (ln) (30 °C) | self-splicing fitness (ln) (37 °C)
1 | AGUGAGCAAUAUUACGUAGC | -1.99 ± 0.14 | -3.39 ± 0.39
2 | GGUAAGCAAUAUUACGGUCG | -0.945 ± 0.066 | -0.215 ± 0.1
3 | GGGUAGCAAUAUUACGUUCG | -0.742 ± 0.065 | 0.339 ± 0.086
4 | AUAAAGCAAUAUUACGGACG | -0.505 ± 0.11 | -0.793 ± 0.13
5 | GCGAAGCAAUAUUACGGGGA | -3.69 ± 0.23 | -3.12 ± 0.33
6 | CGAGAGCAAUAUUACGCUCG | – | -2.39 ± 0.38
7 | UGCGAGCAAUAUUACGACUU | -2.13 ± 0.43 | -1.7 ± 0.41
8 | GAGCAGCAAUAUUACGGAGG | -3.98 ± 0.21 | -2.3 ± 0.21
9 | UUCCAGCAAUAUUACGUUGC | -2.4 ± 0.15 | -2.47 ± 0.33
10 | ACCUAGCAAUAUUACGGGUG | -1.47 ± 0.071 | -1.1 ± 0.087
11 | UGUCAGCAAUAUUACGUCUA | 0.314 ± 0.096 | -0.489 ± 0.1
12 | GAGGAGCAAUAUUACGUAAC | -1.59 ± 0.19 | -2.72 ± 0.41
13 | GGACAGCAAUAUUACGGAGG | -3.52 ± 0.15 | -0.672 ± 0.096
14 | UAGGAGCAAUAUUACGGUAU | -2.93 ± 0.36 | -2.66 ± 0.3
15 | ACAGAGCAAUAUUACGGUCA | -2.73 ± 0.22 | -0.944 ± 0.17
16 | UCUAAGCAAUAUUACGAAGA | -1.29 ± 0.14 | -0.678 ± 0.13
17 | CCUUAGCAAUAUUACGAUAC | -1.67 ± 0.44 | –
18 | AAAAAGCAAUAUUACGGAUA | -2.25 ± 0.11 | -1.14 ± 0.097
19 | CUCUAGCAAUAUUACGAUGA | -1.93 ± 0.2 | -1.93 ± 0.29
20 | CGACAGCAAUAUUACGUGAU | -3.44 ± 0.21 | -1.92 ± 0.17

Row | Sequence | self-splicing fitness (ln) (30 °C) | self-splicing fitness (ln) (37 °C)
21 | GGUGAGCAAUAUUACGCAUU | -1.28 ± 0.25 | -1.89 ± 0.34
22 | AGUGAGCAAUAUUACGGACG | -1.16 ± 0.15 | -1.45 ± 0.21
23 | UAUUAGCAAUAUUACGGAUU | -1.74 ± 0.12 | -0.699 ± 0.11
24 | AGCUAGCAAUAUUACGCUCG | -2.6 ± 0.19 | -1.53 ± 0.17
25 | UUUCAGCAAUAUUACGUUAA | -1.45 ± 0.077 | -1.09 ± 0.076
26 | CUUAAGCAAUAUUACGAGAC | – | -3.26 ± 0.43
27 | UCGCAGCAAUAUUACGCUUC | -1.8 ± 0.34 | -1.68 ± 0.44
28 | GUAAAGCAAUAUUACGGACG | -1.06 ± 0.12 | 0.298 ± 0.15
29 | UUAUAGCAAUAUUACGGGCU | -2 ± 0.33 | -1.3 ± 0.22
30 | CGAUAGCAAUAUUACGUGCG | -2.23 ± 0.089 | -1.04 ± 0.1
31 | UUGCAGCAAUAUUACGCAGA | -2.12 ± 0.11 | -1.95 ± 0.096
32 | AACUAGCAAUAUUACGUUUU | -3.52 ± 0.097 | -1.32 ± 0.075
33 | CAGUAGCAAUAUUACGAGUA | -2.34 ± 0.21 | -2.57 ± 0.31
34 | CGCAAGCAAUAUUACGGGGG | -3.39 ± 0.18 | -1.12 ± 0.13
35 | CGAGAGCAAUAUUACGACCU | -0.7 ± 0.21 | -0.635 ± 0.41
36 | AAGGAGCAAUAUUACGCGCG | -2.19 ± 0.24 | -0.975 ± 0.23
37 | UGAGAGCAAUAUUACGCAGC | -3.13 ± 0.23 | -2.16 ± 0.3
38 | AUUUAGCAAUAUUACGGUUG | -2.68 ± 0.39 | –
39 | GUGAAGCAAUAUUACGCAUC | – | -1.69 ± 0.49
